“And” between values parts separate entries of the source, which are not always exact repeats. Identical values can stand only once.

For assay [1], the target named is T1, mouse IL-13 (mouse, UniProt P20109 26-131, limits assumed).
T1 construct: also called mIL-13; murine IL-13
T1 sequence (looked up): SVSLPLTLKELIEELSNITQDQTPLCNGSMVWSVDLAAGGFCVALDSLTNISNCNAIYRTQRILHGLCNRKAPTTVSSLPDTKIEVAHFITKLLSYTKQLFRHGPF
In words: BIACORE against recombinant mouse IL-13.

Assay [2] addresses T2, human IL-13 variant (R130Q) (human, UniProt P35225 35-146). In words: cell-based or functional assay.
In assay [3] the target is T3, cynomolgus IL-13 (cynomolgus, UniProt Q0PW92 21-132). In words: cell-based or functional assay.
Assay [4] concerns the target T1, mouse IL-13. In words: cell-based or functional assay.
For assay [5], the target named is T1, mouse IL-13. In words: SPR (Biacore).
Assay [6] deals with T4, human IL-13 wild type (human, UniProt P35225 35-146).
T4 construct: also called h IL-13; h IL-13 wt
Description: SPR (Biacore), mAb captured, IL-13 as analyte. The method, then:
(§1) The BIACORE assay (Biacore, Inc, Piscataway, N.J.) determines the affinity of antibodies with kinetic measurements of on-, off-rate constants. […] All chemicals were obtained from Biacore® AB (Uppsala, Sweden) or otherwise from a different source as described in the text. Approximately 5000 RU of goat anti-mouse IgG, (Fcγ), fragment specific polyclonal antibody (Pierce Biotechnology Inc, Rockford, Ill.) diluted in 10 mM sodium acetate (pH 4.5) was directly immobilized across a CM5 research grade biosensor chip using a standard amine coupling kit according to manufacturer's instructions and procedures at 25 μg/ml. Unreacted moieties on the biosensor surface were blocked with ethanolamine. Modified carboxymethyl dextran surface in flowcell 2 and 4 was used as a reaction surface. Unmodified carboxymethyl dextran without goat anti-mouse IgG in flow cell 1 and 3 was used as the reference surface. For kinetic analysis, rate equations derived from the 1:1 Langmuir binding model were fitted simultaneously to association and dissociation phases of all eight injections (using global fit analysis) with the use of Biaevaluation 4.0.1 software. Purified antibodies were diluted in HEPES-buffered saline for capture across goat anti-mouse IgG specific reaction surfaces. Mouse antibodies to be captured as a ligand (25 μg/ml) were injected over reaction matrices at a flow rate of 5 μl/min. The association and dissociation rate constants, kₒₙ (unit M⁻¹s⁻¹) and koff (unit s⁻¹) were determined under a continuous flow rate of 25 μl/min Rate constants were derived by making kinetic binding measurements at ten different antigen concentrations ranging from 10-200 nM. […] Binding is recorded as a function of time and kinetic rate constants are calculated.
On the technique in general: Surface plasmon resonance follows binding to a sensor surface in real time, without labels.

Assay [7] deals with T2, human IL-13 variant (R130Q). In words: SPR (Biacore), mAb captured, IL-13 as analyte; row shifted, read as variant IL-13 columns. The method, then:
as §1

For assay [8], the target named is T4, human IL-13 wild type. Description: SPR (Biacore). On the procedure: as §1
The target of assay [9] is T2, human IL-13 variant (R130Q). In words: cell-based or functional assay. The source holds these as a separate data set.
In assay [10] the target is T4, human IL-13 wild type. In words: cell-based or functional assay.
Assay [11] addresses T2, human IL-13 variant (R130Q). Description: SPR (Biacore).
For assay [12], the target named is T4, human IL-13 wild type. In words: SPR (Biacore). The source holds these as a separate data set.
Assay [13] concerns the target T4, human IL-13 wild type. In words: cell surface-based receptor binding assay, blocking 125I-IL-13 binding to IL-13Rα2-transfected COS cells. The method, then:
Recombinant human IL-13 was labeled with ¹²⁵I (Amersham, Arlington Heights, Ill.), using IODO-GEN reagent (Pierce, Rockford, Ill.) as previously described (Obiri N I et al., (1995) J Biol Chem. 270:8797-8804). […] Transfected COS cells (5×10^5 cells in 100 μL binding buffer: RPMI 1640 containing 0.2% human serum albumin and 10 mmol HEPES) were incubated with 1.0 nM ¹²⁵I-IL-13 with or without 1 uM unlabeled IL-13 at 4° C. for 2 hours. Cell-bound ¹²⁵I-IL-13 was separated from unbound ¹²⁵I-IL-13 by centrifugation through a phthalate oil gradient, and radioactivity was determined with a gamma counter (Wallac, Gaithersburg, Md.).

The target of assay [14] is T4, human IL-13 wild type. Description: receptor binding assays (cell surface-based on IL-13Rα2-transfected COS cells and ELISA-based with IL-13Rα2/Fc), 13C5.5 blocking human IL-13 binding to human IL-13Rα2; range told over both assays.
In assay [15] the target is T4, human IL-13 wild type. In words: ELISA-based receptor binding assay, blocking biotin-IL-13 binding to IL-13Rα2/Fc. The method, then:
After 16 hr, coating solution was removed by flicking plate contents in sink, and plates were washed and blocked 4 times with Superblock Blocking Buffer (240 ul/well) (Pierce). […] Plates were washed 5 times with 300 ul 0.1% PBST, and then 100 ul of 1:5000 diluted mouse anti-Biotin MAb (Jackson Immunosciences) was added and incubated at RT for 45 min. The plates were washed again 5 times with 300 ul 0.1% PBST, followed by addition of TMB substrate reagent (100 ul/well, Pharmingen); developed for 5 min, and stopped by adding 50 ul of 2M H2SO4 (VWR). ODs at 450 nm were determined by spectrophotometry.
For orientation: In an ELISA, binding on a coated surface is turned into a signal by an enzyme label.

In assay [16] the target is T1, mouse IL-13. Description: indirect ELISA, captured mAb, biotinylated mouse IL-13. On the procedure: Murine anti-human IL-13 mAbs were prepared at various concentrations ranging from 0.1 to 100 ng/ml in PBS containing 0.1% BSA; 50 ul of each antibody dilution was added to the coated ELISA plate and incubated for 1 hour at room temperature. Wells were washed 3 times with PBS containing 0.05% Tween-20. […] Wells were washed 3 times with PBS containing 0.05% Tween-20. Streptavidin HRP (Pierce #21126, Rockland, Ill.) was diluted 1:20000 in PBS containing 0.1% BSA; […] was added and the plates incubated for 1 hour at room temperature. Plates were washed 3 times with PBS containing 0.05% Tween-20. Fifty microliters of TMB solution (Sigma # T0440, St. Louis, Mo.) was added to each well and incubated for 10 minutes at room temperature. The reaction was stopped by addition of 1N sulphuric acid. Plates were read spectrophotmetrically at a wavelength of 450 nm.

Assay [17] addresses T4, human IL-13 wild type. Description: SPR (Biacore), mAb captured, IL-13 as analyte; native recombinant human wild-type IL-13, Biacore. On the procedure:
as §1

Assay [18] concerns the target T2, human IL-13 variant (R130Q). In words: not stated in the sentence (Biacore elsewhere).
Assay [19] has as its target T3, cynomolgus IL-13. In words: not stated in the sentence (Biacore elsewhere).
Assay [20] has as its target T4, human IL-13 wild type. Description: cell-based or functional assay. This is another data set of the same source.
For assay [21], the target named is T4, human IL-13 wild type. In words: blocking of IL-13 binding to IL-13Rα2: cell surface RBA (125I-IL-13, transfected COS cells) and receptor binding ELISA (IL-13Rα2/Fc); native IL-13 in solution; blocking of binding to IL-13Rα2, cell surface RBA and RB ELISA; upper end of range. The method, then:
(§2) The plates were washed again 5 times with 300 ul 0.1% PBST, followed by addition of TMB substrate reagent (100 ul/well, Pharmingen); developed for 5 min, and stopped by adding 50 ul of 2M H2SO4 (VWR). ODs at 450 nm were determined by spectrophotometry.
(§3) Additionally, the receptor blocking properties of the mAbs were also assessed by receptor binding assay using IL-13Rα2-transfected COS cells. Recombinant human IL-13 was labeled with ¹²⁵I (Amersham, Arlington Heights, Ill.), using IODO-GEN reagent (Pierce, Rockford, Ill.) as previously described (Obiri N I et al., (1995) J Biol Chem. 270:8797-8804). […] For binding experiments, COS cells were transiently transfected with human IL-13Rα2 by Lipofectamine 2000 (Invitrogen), and incubated for 48 hr. Transfected COS cells (5×10^5 cells in 100 μL binding buffer: RPMI 1640 containing 0.2% human serum albumin and 10 mmol HEPES) were incubated with 1.0 nM ¹²⁵I-IL-13 with or without 1 uM unlabeled IL-13 at 4° C. for 2 hours. Cell-bound ¹²⁵I-IL-13 was separated from unbound ¹²⁵I-IL-13 by centrifugation through a phthalate oil gradient, and radioactivity was determined with a gamma counter (Wallac, Gaithersburg, Md.).

The target of assay [22] is T4, human IL-13 wild type. In words: blocking of IL-13 binding to IL-13Rα2: cell surface RBA (125I-IL-13, transfected COS cells) and receptor binding ELISA (IL-13Rα2/Fc); native IL-13 in solution; blocking of binding to IL-13Rα2, cell surface RBA and RB ELISA; lower end of range. The method, then: as §2, §3
For assay [23], the target named is T2, human IL-13 variant (R130Q). In words: SPR (Biacore), mAb captured, IL-13 as analyte. The method, then: as §1

T2 sequence (P35225 35-146 limits assumed, stated change not applied): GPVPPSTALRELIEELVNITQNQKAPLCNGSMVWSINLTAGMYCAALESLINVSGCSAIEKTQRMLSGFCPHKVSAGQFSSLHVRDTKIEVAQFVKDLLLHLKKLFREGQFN
T4 sequence (P35225 other isoform, or with tags, fused parts or gaps limits assumed): as the sequence (P35225 35-146 limits assumed, stated change not applied) above, with Q110R counted along it
T3 sequence (Q0PW92 entry or part of it): as the sequence (P35225 35-146 limits assumed, stated change not applied) above, with G1S, R10K, M42V, S67N, H83R, L100V counted along it

B1: 3H7 (antibody, mouse IgG1, V domains shown)
VH: EVQLVESGGGLVKPGGSLKLSCAASGFTFSTYAMSWVRQTPEKRLEWVAGISSGGSYTYYPETMKGRFTISRDNARNTLYLQMSSLRSEDTAIYYCTRGSWGQGTSVTVSS
VL: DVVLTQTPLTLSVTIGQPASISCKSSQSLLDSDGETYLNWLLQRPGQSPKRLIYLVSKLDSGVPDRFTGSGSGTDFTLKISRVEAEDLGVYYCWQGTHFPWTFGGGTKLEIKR
notes: Murine monoclonal; also called mAb 3H7
One may read the Kd as the concentration at which binding is half-saturated. As usually defined, the koff is the first-order rate constant of dissociation. Usually kon stands for the rate constant with which the complex forms. As to B1, the Kd in the assay with mouse IL-13 [1] turned out to be 11.2 nM; with mouse IL-13 [5], 12 nM; in assay [7] it was 0.22 nM. Besides, the “Average IC50, IL-13-induced TARC production by A-549 cells” value in [2] came to 0.58 nM; with cynomolgus IL-13 [3] it was 0.797 nM. The “IC50, A-549 bioassay against recombinant mouse IL-13” value in the assay with mouse IL-13 [4] was 2.43 nM. Also, in the assay with human IL-13 wild type [6], the binding result is “no binding”. Further, the koff in assay [7] is 5.58e-05 s⁻¹. Moreover, the kon in assay [7] worked out at 254000 M⁻¹ s⁻¹.

B2: 13C5.5 (antibody, human IgG1, V domains shown)
VH: EVTLRESGPGLVKPTQTLTLTCTLYGFSLSTSDMGVDWIRQPPGKGLEWLAHIWWDDVKRYNPALKSRLTISKDTSKNQVVLKLTSVDPVDTATYYCARTVSSGYIYYAMDYWGQGTLVTVSS
VL: DIQMTQSPSSLSASVGDRVTISCRASQDIRNYLNWYQQKPGKAPKLLIFYTSKLHSGVPSRFSGSGSGTDYTLTISSLQPEDIATYYCQQGNTLPLTFGGGTKVEIK
notes: Humanized; The light chain row is printed 'VL 1305.5'; also called humanized 13C5; recombinant humanized antibody 13C5.5
In general, IC50 refers to the concentration that inhibits the measured activity by half. Consider B2, for which the dissociation constant (Kd) with human IL-13 wild type [8] was determined as 0.0701 nM; in [11], 0.05 nM; with human IL-13 wild type [12], 0.07 nM. Besides, in the assay with human IL-13 wild type [8], the koff came out at 0.000176 s⁻¹. This molecule also gave a kon in the assay with human IL-13 wild type [8] of 2.51e+06 M⁻¹ s⁻¹. Also, the “Potency (IC50), A-549 bioassay” value in assay [9] amounted to 0.069 nM; in the assay with human IL-13 wild type [10], 0.124 nM. The IC50 is 2.7 nM in the assay with human IL-13 wild type [13]; ≥ 1 nM and ≤ 3 nM with human IL-13 wild type [14]; 1.1 nM with human IL-13 wild type [15].

B3: 13C5 (antibody, V domains shown)
VH: QVTLKESGPGILQPSQTLSLTCSFSGFSLSTSDMGVDWIRQPSGKGLEWLAHIWWDDVKRYNPALKSRLTISKDTSSSQVFLMLASVDTADTATYYCARTVSSGYIYYAMDYWGQGTSVTVSS
VL: DIQMTQTASSLSASLGDRVTISCRASQDIRNYLNWYQRKPDGTVKLLIFYTSKLHSGVPSRFSGSGSGTDYSLTIRNLEQEDIATYFCQQGNTLPLTFGGGTKLEIKR
notes: also called murine 13C5
For the molecule B3, in the assay with mouse IL-13 [16], the binding result is recorded as “no binding (tested: 0.1 to 100 ng/ml)”. Also, the Kd with human IL-13 wild type [17] is 0.0745 nM; in assay [18], 0.05 nM; with cynomolgus IL-13 [19], 1.8 nM; in assay [23], 0.0759 nM. For the same molecule, the koff was determined as 9.31e-05 s⁻¹ in the assay with human IL-13 wild type [17] and 4.35e-05 s⁻¹ in assay [23]. For the same molecule, the kon with human IL-13 wild type [17] was determined as 1.25e+06 M⁻¹ s⁻¹; in [23], 574000 M⁻¹ s⁻¹. Besides, the “Average IC50, IL-13-induced TARC production by A-549 cells” value in assay [2] came out at 0.17 nM; with human IL-13 wild type [20], 0.19 nM; with cynomolgus IL-13 [3] it was 5 nM. The IC50 with human IL-13 wild type [21] and in the assay with human IL-13 wild type [22] was 1 to 3 nM each time.

The values are drawn from US20110165066A1 (AbbVie / Abbott, published 2011).
